Like-named read-outs stand apart in the source and are kept apart here.
T1: human PAC1 receptor (human, UniProt P41586 21-468)
T1 sequence: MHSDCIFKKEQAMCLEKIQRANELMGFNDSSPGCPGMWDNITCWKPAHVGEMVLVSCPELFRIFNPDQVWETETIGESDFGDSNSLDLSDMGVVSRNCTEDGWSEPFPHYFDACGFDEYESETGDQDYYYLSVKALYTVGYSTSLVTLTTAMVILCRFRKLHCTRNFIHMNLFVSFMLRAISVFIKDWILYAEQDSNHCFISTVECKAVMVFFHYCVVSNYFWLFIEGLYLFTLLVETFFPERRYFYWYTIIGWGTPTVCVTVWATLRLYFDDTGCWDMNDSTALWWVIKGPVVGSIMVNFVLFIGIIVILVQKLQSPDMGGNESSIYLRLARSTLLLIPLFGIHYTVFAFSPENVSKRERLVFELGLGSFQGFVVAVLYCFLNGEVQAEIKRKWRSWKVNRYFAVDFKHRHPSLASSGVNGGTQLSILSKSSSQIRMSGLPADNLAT


Experiments:
Assay in all cases: cell-based or functional assay
human PAC1 receptor [1] = biological target: T1, human PAC1 receptor
human CGRP receptor [2] = biological target: T2, human CGRP receptor (human, UniProt Q16602 23-461; O60894 27-148)
human PAC1 receptor [3] = biological target: T1, human PAC1 receptor; remark: listed apart in the source
human CGRP receptor [4] = biological target: T2, human CGRP receptor; remark: listed apart in the source

T2 sequence (Q16602 23-461 limits assumed, chain 1 of 2): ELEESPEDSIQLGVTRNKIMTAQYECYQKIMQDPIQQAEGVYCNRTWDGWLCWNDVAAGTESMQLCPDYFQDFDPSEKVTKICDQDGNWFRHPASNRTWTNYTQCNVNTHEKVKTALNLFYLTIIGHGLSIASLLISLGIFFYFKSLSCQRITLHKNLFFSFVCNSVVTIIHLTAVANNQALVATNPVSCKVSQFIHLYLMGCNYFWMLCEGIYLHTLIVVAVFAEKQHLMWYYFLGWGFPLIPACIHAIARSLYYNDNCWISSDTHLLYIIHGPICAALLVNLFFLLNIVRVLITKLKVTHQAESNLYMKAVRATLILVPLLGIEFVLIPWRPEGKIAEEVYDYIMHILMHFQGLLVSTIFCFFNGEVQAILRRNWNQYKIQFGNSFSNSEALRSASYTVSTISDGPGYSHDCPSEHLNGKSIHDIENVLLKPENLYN
T2 sequence (O60894 27-148 limits assumed, chain 2 of 2): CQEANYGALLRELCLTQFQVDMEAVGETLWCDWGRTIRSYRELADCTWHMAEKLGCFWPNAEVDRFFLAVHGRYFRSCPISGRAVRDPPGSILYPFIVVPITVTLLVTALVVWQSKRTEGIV

Human PAC1 Receptor IC50 (human PAC1 receptor [1]) [nM] | Human CGRP Receptor IC50 (human CGRP receptor [2]) [nM] | Human PAC1 Receptor IC50 (human PAC1 receptor [3]) [nM] | Human CGRP Receptor IC50 (human CGRP receptor [4]) [nM] | Binder
11.9 | 2.61 | – | – | iPS:386764 (bispecific antibody, human IgG1, kappa, N297G) light: DIQLTQSPSFLSASVGDRVTITCRASQSIGRSLHWYQQKPGKAPKLLIKYASQSLSGVPSRFSGSGSGTEFTLTISSLQPEDFATYYCHQSSRLPFTFGPGTKVDIKRTVAAPSVFIFPPSDEQLKSGTASVVCLLNNFYPREAKVQWKVDNALQSGNSQESVTEQDSKDSTYSLSSTLTLSKADYEKHKVYACEVTHQGLSSPVTKSFNRGEC heavy: not shown
– | – | 4.69 | 54 | iPS:392514 (bispecific antibody, human IgG1, kappa, lambda, N297G) light: DIQLTQSPSFLSASVGDRVTITCRASQSIGRSLHWYQQKPGKAPKLLIKYASQSLSGVPSRFSGSGSGTEFTLTISSLQPEDFATYYCHQSSRLPFTFGPGTKVDIKRTVAAPSVFIFPPSDEQLKSGTASVVCLLNNFYPREAKVQWKVDNALQSGNSQESVTEQDSKDSTYSLESTLTLSKADYEKHKVYACEVTHQGLSSPVTKSFNRGEC heavy: not shown QVQLVESGGGVVQPGRSLRLSCAASGFTFSSFGMHWVREAPGKGLEWVAVISFDGSIKYSVDSVKGRFTISRDNSKNTLFLQMNSLRAEDTAVYYCARDRLNYYDSSGYYHYKYYGMAVWGQGTTVTVSSGQPKANPTVTLFPPSSEELQANKATLVCLISDFYPGAVTVAWKADGSPVKAGVETTKPSKQSNNKYAAESYLSLTPEQWKSHRSYSCQVTHEGSTVEKTVAPTECS
– | – | 9.3 | 27.9 | iPS:392516 (bispecific antibody, human IgG1, kappa, lambda, N297G) light: DIQLTQSPSFLSASVGDRVTITCRASQSIGRSLHWYQQKPGKAPKLLIKYASQSLSGVPSRFSGSGSGTEFTLTISSLQPEDFATYYCHQSSRLPFTFGPGTKVDIKRTVAAPSVFIFPPSDEQLKSGTASVVCLLNNFYPREAKVQWKVDNALQSGNSQESVTEQDSKDSTYSLESTLTLSKADYEKHKVYACEVTHQGLSSPVTKSFNRGEC heavy: not shown QVQLVESGGGVVQPGRSLRLSCAASGFTFSSFGMHWVREAPGKGLEWVAVISFDGSIKYSVDSVKGRFTISRDNSKNTLFLQMNSLRAEDTAVYYCARDRLNYYDSSGYYHYKYYGMAVWGQGTTVTVSSASTKGPSVFPLAPSSKSTSGGTAALGCLVKDYFPEPVTVSWNSGALTSGVHTFPAVLQSSGLYSLESVVTVPSSSLGTQTYICNVNHKPSNTKVDKKV
– | – | 2.7 | 60.2 | iPS:392513 (bispecific antibody, human IgG1, kappa, lambda, N297G) light: DIQLTQSPSFLSASVGDRVTITCRASQSIGRSLHWYQQKPGKAPKLLIKYASQSLSGVPSRFSGSGSGTEFTLTISSLQPEDFATYYCHQSSRLPFTFGPGTKVDIKRTVAAPSVFIFPPSDEQLKSGTASVVCLLNNFYPREAKVQWKVDNALQSGNSQESVTEQDSKDSTYSLESTLTLSKADYEKHKVYACEVTHQGLSSPVTKSFNRGEC heavy: not shown QVQLVESGGGVVQPGRSLRLSCAASGFTFSSFGMHWVRQAPGKGLEWVAVISFDGSIKYSVDSVKGRFTISRDNSKNTLFLQMNSLRAEDTAVYYCARDRLNYYDSSGYYHYKYYGMAVWGQGTTVTVSSGQPKANPTVTLFPPSSEELQANKATLVCLISDFYPGAVTVAWKADGSPVKAGVETTKPSKQSNNKYAAESYLSLTPEQWKSHRSYSCQVTHEGSTVEKTVAPTECS
– | – | 4.78 | 20.4 | iPS:392475 (bispecific antibody, human IgG1, kappa, lambda, N297G) light: DIQLTQSPSFLSASVGDRVTITCRASQSIGRSLHWYQQKPGKAPKLLIKYASQSLSGVPSRFSGSGSGTEFTLTISSLQPEDFATYYCHQSSRLPFTFGPGTKVDIKRTVAAPSVFIFPPSDEQLKSGTASVVCLLNNFYPREAKVQWKVDNALQSGNSQESVTEQDSKDSTYSLESTLTLSKADYEKHKVYACEVTHQGLSSPVTKSFNRGEC heavy: not shown QVQLVESGGGVVQPGRSLRLSCAASGFTFSSFGMHWVRQAPGKGLEWVAVISFDGSIKYSVDSVKGRFTISRDNSKNTLFLQMNSLRAEDTAVYYCARDRLNYYESSGYYHYKYYGMAVWGQGTTVTVSSGQPKANPTVTLFPPSSEELQANKATLVCLISDFYPGAVTVAWKADGSPVKAGVETTKPSKQSNNKYAAESYLSLTPEQWKSHRSYSCQVTHEGSTVEKTVAPTECS
– | – | 2.66 | 12.9 | iPS:392515 (bispecific antibody, human IgG1, kappa, lambda, N297G) light: DIQLTQSPSFLSASVGDRVTITCRASQSIGRSLHWYQQKPGKAPKLLIKYASQSLSGVPSRFSGSGSGTEFTLTISSLQPEDFATYYCHQSSRLPFTFGPGTKVDIKRTVAAPSVFIFPPSDEQLKSGTASVVCLLNNFYPREAKVQWKVDNALQSGNSQESVTEQDSKDSTYSLESTLTLSKADYEKHKVYACEVTHQGLSSPVTKSFNRGEC heavy: not shown QVQLVESGGGVVQPGRSLRLSCAASGFTFSSFGMHWVRQAPGKGLEWVAVISFDGSIKYSVDSVKGRFTISRDNSKNTLFLQMNSLRAEDTAVYYCARDRLNYYDSSGYYHYKYYGMAVWGQGTTVTVSSASTKGPSVFPLAPSSKSTSGGTAALGCLVKDYFPEPVTVSWNSGALTSGVHTFPAVLQSSGLYSLESVVTVPSSSLGTQTYICNVNHKPSNTKVDKKV

The next lines start with the binder.

Binder | Human PAC1 Receptor IC50 (human PAC1 receptor [1]) [nM] | Human CGRP Receptor IC50 (human CGRP receptor [2]) [nM] | Human PAC1 Receptor IC50 (human PAC1 receptor [3]) [nM] | Human CGRP Receptor IC50 (human CGRP receptor [4]) [nM]
iPS:386715 (bispecific antibody, human IgG1, lambda, N297G) light: QSVLTQPPSVSAAPGQKVTISCSGSSSNIGNNYVSWYQQLPGTAPKLLIYDNNKRPSGIPDRFSGSKSGTSTTLGITGLQTGDEADYYCGTWDSRLSAVVFGGGTKLTVLGQPKANPTVTLFPPSSEELQANKATLVCLISDFYPGAVTVAWKADGSPVKAGVETTKPSKQSNNKYAASSYLSLTPEQWKSHRSYSCQVTHEGSTVEKTVAPTECS heavy: not shown | 689 | 0.43 | – | –
iPS:386723 (bispecific antibody, human IgG1, lambda, N297G) light: QSVLTQPPSVSAAPGQKVTISCSGSSSNIGNNYVSWYQQLPGTAPKLLIYDNNKRPSGIPDRFSGSKSGTSATLGITGLQTGDEADYYCGTWDSRLSAVVFGGGTKLTVLGQPKANPTVTLFPPSSEELQANKATLVCLISDFYPGAVTVAWKADGSPVKAGVETTKPSKQSNNKYAASSYLSLTPEQWKSHRSYSCQVTHEGSTVEKTVAPTECS heavy: not shown | 248 | 0.27 | – | –
iPS:386717 (bispecific antibody, human IgG1, lambda, N297G) light: QSVLTQPPSVSAAPGQKVTISCSGSSSNIGNNYVSWYQQLPGTAPKLLIYDNNKRPSGIPDRFSGSKSGTSTTLGITGLQTGDEADYYCGTWDSRLSAVVFGGGTKLTVLGQPKANPTVTLFPPSSEELQANKATLVCLISDFYPGAVTVAWKADGSPVKAGVETTKPSKQSNNKYAASSYLSLTPEQWKSHRSYSCQVTHEGSTVEKTVAPTECS heavy: not shown | 580 | 0.33 | – | –
iPS:386719 (bispecific antibody, human IgG1, lambda, N297G) light: QSVLTQPPSVSAAPGQKVTISCSGSSSNIGNNYVSWYQQLPGTAPKLLIYDNNKRPSGIPDRFSGSKSGTSATLGITGLQTGDEADYYCGTWDSRLSAVVFGGGTKLTVLGQPKANPTVTLFPPSSEELQANKATLVCLISDFYPGAVTVAWKADGSPVKAGVETTKPSKQSNNKYAASSYLSLTPEQWKSHRSYSCQVTHEGSTVEKTVAPTECS heavy: not shown | 940 | 0.41 | – | –
iPS:386721 (bispecific antibody, human IgG1, lambda, N297G) light: QSVLTQPPSVSAAPGQKVTISCSGSSSNIGNNYVSWYQQLPGTAPKLLIYDNNKRPSGIPDRFSGSKSGTSATLAITGLQTGDEADYYCGTWDSRLSAVVFGGGTKLTVLGQPKANPTVTLFPPSSEELQANKATLVCLISDFYPGAVTVAWKADGSPVKAGVETTKPSKQSNNKYAASSYLSLTPEQWKSHRSYSCQVTHEGSTVEKTVAPTECS heavy: not shown | 197 | 0.22 | – | –
